The values that follow come from US20230051715A1 (MABWELL THERAPEUTICS, published 2023).

The target in test [1] is T1, human C1s mutant M5 (K336G) (human, UniProt P09871 16-688).
T1 construct: The entry is the mutant itself
T1 sequence: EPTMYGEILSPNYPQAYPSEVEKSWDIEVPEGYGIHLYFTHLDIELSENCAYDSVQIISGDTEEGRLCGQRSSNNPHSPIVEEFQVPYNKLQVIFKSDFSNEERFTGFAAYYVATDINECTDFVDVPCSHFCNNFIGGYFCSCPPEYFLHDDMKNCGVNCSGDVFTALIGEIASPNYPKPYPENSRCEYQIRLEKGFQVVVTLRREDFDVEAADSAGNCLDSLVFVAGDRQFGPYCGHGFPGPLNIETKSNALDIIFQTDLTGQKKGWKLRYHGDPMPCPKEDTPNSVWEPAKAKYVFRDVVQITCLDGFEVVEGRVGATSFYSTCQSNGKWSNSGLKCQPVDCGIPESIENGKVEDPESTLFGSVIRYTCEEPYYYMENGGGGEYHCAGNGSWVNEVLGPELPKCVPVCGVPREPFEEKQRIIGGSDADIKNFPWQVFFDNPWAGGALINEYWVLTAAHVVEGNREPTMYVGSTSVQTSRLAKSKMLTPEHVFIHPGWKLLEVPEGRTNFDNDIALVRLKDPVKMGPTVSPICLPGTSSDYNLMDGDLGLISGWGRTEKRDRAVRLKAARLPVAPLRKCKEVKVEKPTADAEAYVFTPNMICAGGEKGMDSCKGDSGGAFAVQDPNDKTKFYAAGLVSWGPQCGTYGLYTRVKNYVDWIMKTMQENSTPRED
Nature of the test: ELISA, plate coated with human C1s mutant M5: K336G, OD450nm. The protocol: ELISA was carried out by first coating 96-well plates with 200 ng/well of full-length or truncated C1s proteins overnight. The next morning, plates were blocked with SuperBlock T20 blocking buffer (Thermo Scientific 37536) for 1 h with gentle shaking. Then, various concentrations of anti-C1s antibodies diluted in SuperBlock T20 blocking buffer were added to the plates and incubated for 1 h with gentle shaking. Mouse IgG (Sigma-Aldrich 15381) and human IgG1 (BioXCell BP0297) were used as negative controls. The plates were washed before incubating with HRP conjugated secondary antibodies diluted in SuperBlock T20 blocking buffer (goat anti-mouse IgG (H+L) cross-adsorbed secondary antibody HRP (Invitrogen G-21040) or goat anti-human IgG antibody, HRP conjugate (Millipore AP309P)) for 1 h with gentle shaking. At last, the plates were washed and color developed with ELISA liquid HRP substrate (Sigma-Aldrich), followed by stopping the reaction with addition of 1M H₂SO₄ in the same volume as the ELISA liquid substrate. Bound antibody was measured by absorbance at OD₄₅₀ₙₘ.
Binding of anti-C1s antibodies to mutants M1-M20 of human C1s was measured by ELISA as described in Example 4, and results are shown in FIGS. 6B-6U. […]
On the technique in general: ELISA stands for enzyme-linked immunosorbent assay.

The target of test [2] is T2, human C1s proenzyme (CompTech A103) (human, UniProt P09871 16-688).
T2 construct: also called proenzyme human C1s (native C1s)
T2 sequence (looked up): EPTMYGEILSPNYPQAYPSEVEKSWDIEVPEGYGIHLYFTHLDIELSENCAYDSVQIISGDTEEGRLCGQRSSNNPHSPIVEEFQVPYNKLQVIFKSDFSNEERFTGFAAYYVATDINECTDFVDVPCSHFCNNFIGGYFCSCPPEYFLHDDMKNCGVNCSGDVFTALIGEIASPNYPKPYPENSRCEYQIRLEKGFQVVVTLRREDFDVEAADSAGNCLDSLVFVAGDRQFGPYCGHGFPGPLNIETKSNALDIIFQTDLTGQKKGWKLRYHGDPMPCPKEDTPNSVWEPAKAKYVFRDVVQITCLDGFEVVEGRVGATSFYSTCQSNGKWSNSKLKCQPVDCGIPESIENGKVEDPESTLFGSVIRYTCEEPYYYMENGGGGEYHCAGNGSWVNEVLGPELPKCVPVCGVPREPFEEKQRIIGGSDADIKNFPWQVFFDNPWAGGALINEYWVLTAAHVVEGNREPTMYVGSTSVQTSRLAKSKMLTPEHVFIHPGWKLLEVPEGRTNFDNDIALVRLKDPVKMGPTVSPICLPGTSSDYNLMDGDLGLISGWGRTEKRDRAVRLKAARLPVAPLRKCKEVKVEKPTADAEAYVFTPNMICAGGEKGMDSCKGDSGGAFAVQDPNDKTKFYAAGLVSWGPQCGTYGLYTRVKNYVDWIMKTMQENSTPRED
Put plainly: BLI (Octet RED96e), antibody on AHC biosensor; HuC1s Form: Proenzyme; R^2 0.9990. The protocol: Bio-Layer Interferometry technology was used for anti-C1s antibody affinity measurement and binding kinetics determinations with OCTET® RED96e system (Sartorius AG). Pre-hydrated Anti-Human IgG Fc Capture (AHC) biosensors were first equilibrated in 1×KB (Kinetic Buffer, 1×PBS pH 7.4+0.02% Tween-20+0.1% BSA) for 120 sec for the first baseline, followed by loading with […] anti-C1s antibody (2-7, FIG. 3A; 2-8, FIG. 3B; hz2-7(H1L2), FIG. 3C; hz2-8(H1L2 G80A/T82A, FIG. 3D) onto AHC biosensors for 240 sec. Then, the second baseline signal was established for 120 sec before association with various concentrations of active human C1s (CompTech A104) for 240-360 sec. At last, analyte was dissociated in 1×KB for 360 sec. Anti-C1s antibodies 2-7 and 2-8 were also analyzed against human C1s proenzyme (CompTech A103) (data not shown). Data analysis was carried out using OCTET® Data Analysis HT Software (Sartorius AG). KD, kₒₙ, koff and R² values were calculated for each antibody and target combination, as summarized in FIG. 3E showing high affinity binding with KD values in the low nanomolar to picomolar range.

B1: Anti-C1s antibody hz2-7(H1L2) (antibody, V domains shown)
VH: EVQLLESGGGLVQPGGSLRLSCAASGFTFSNYFMNWVRQAPGKGLEWVSEIRLKFTNYATHYADSVKGRFTISRDDSKSTLYLQMNSLRAEDTAVYYCTRDYGSRNGYFDYWGQGTLVTVSS
VL: DIVMTQTPLSLPVTPGEPASISCRSSKSLLHSNGNTFLYWFLQKPGQSPQLLIYRMSNLASGVPDRFSGSGSGTDFTLKISRVEAEDVGVYYCMQHLEYPYTFGGGTKLEIKR
notes: Humanized, human IgG1 / kappa; also called hz2-7(1L2)
Regarding B1, the EC50 (as a rule, the midpoint of the concentration-response curve) in test [1] amounted to 0.015 µg/mL.

B2: Anti-C1s antibody 2-8 (antibody, V domains shown)
VH: EVQLQQSGAELVRPGALVKLSCKASGFNIKEYYMHWVKQRPEQGLEWIGWIDPENGDTIYDPKFQGKASITADTSSNTAYLQLSSLTSEDTAVYYCARSRLFFAYWGQGTLVTVSA
VL: DIVMTQSHKFMSTSVGDRVSFTCKASQDVRTAVDWYQQKPGQSPKLLIYSASYRYTGVPDRFTGTGSGTDFTFTISSVQAEDLAVYFCQQQYTTPYTFGGGTKLEIKT
notes: the HC/LC entries may hold it too; also called clone 2-8
On to B2, for which, in test [2], the Kd – broadly, the free concentration of one partner at which half of the binding sites on the other are occupied at equilibrium, for simple one-to-one binding – is 0.49 nM; the koff – broadly, a measure of how fast the partners let go of each other – came out at 0.00012 s⁻¹; the association rate constant (kon) – broadly, a measure of how fast the partners come together – came out at 250000 M⁻¹ s⁻¹.
